{
  "source": "patent US20170016892A1",
  "about": "“LOCALIZED SURFACE PLASMON RESONANCE SENSING OF HUMAN PERFORMANCE BIOMARKERS USING SHORT PEPTIDE RECOGNITION ELEMENTS ON OPTICALLY ACTIVE METAL NANOSTRUCTURES” (Government of the United States as Represented by the …, priority 2015, published 2017)",
  "key": {"cTnI [1]": {"target": "T1, cTnI (Homo sapiens, UniProt P19429)", "T1 sequence (P19429 whole entry)": "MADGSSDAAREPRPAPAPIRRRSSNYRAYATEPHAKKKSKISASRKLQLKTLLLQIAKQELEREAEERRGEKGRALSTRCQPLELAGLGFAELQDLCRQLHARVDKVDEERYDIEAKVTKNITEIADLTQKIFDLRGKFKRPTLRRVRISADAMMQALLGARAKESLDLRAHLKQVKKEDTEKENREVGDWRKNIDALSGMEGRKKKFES", "assay": "binding affinity of phage-display-identified peptide to cTnI", "conditions": "peptide identified from a phage display peptide library", "source_text": "Human troponin I binding peptide (Seq. ID No. 1), identified from a phage display peptide library, with nanomolar (nM) binding affinity to cTnI. Conjugation of the peptide to AuNR was achieved by introducing a cysteine resident at the C-terminus of the peptide (Seq. ID No. 2), to facilitate binding via an Au—S linkage."}, "cTnI [2]": {"target": "T1, cTnI", "assay": "LSPR shift of BPDs on exposure to troponin in buffer", "type": "binding", "method": "To probe the sensing capability of the BPDs, each BPD was exposed to troponin 1 (3.53 μg/mL in 0.1 M TBS, pH 8.0). […] The higher sensitivity of peptide-AuNR as compared to the sensitivity of the antibody-AuNR was believed to be due to differences in the thickness of the peptide and antibody adsorbate layer.\nTo probe the limit of detection in both the peptide- and antibody-AuNR BPDs, each BPD was exposed to varying concentrations of cTnI."}, "[3]": {"target": "human serum albumin (HSA) (Homo sapiens, UniProt P02768)", "assay": "selectivity of BPDs with human serum albumin as interfering protein (LSPR shift)", "type": "binding", "conditions": "high concentrations of HSA", "source_text": "To compare selectivity of both the peptide- and antibody-AuNR BPDs towards cTnI, human serum albumin (“HSA”) was used as an interfering protein."}, "[4]": {"assay": "thermal and shelf-life stability of BPDs by measured LSPR shift", "type": "physicochemical", "conditions": "incubated at 4° C. and at 60° C., each for 48 hrs", "method": "To compare stability of both the peptide- and antibody-AuNR BPDs, each BPD type was incubated at 4° C. and at 60° C., each for 48 hrs. […] This reduction is believed to be due to antibody denaturation and lose molecular recognition at elevated temperatures."}, "cTnI [5]": {"target": "T1, cTnI", "assay": "detection of troponin in human plasma with peptide-based BPDs (LSPR shift)", "type": "binding", "method": "(§1) Peptide-based BPDs prepared in accordance with embodiments of the present invention were used in detection of troponin in complex physiological fluids, including, for example, human plasma and sweat. To reduce nonspecific binding, the BPDs were first exposed to 1% HAS to block non-specific sites. […] The limit of detection of cTnI in human plasma was 353 pg/mL, which was within physiological relevant concentration range of troponin in human plasma (0.010 ng/mL to 10 ng/mL). […] Moreover, detection of troponin in artificial eccrine sweat at physiologically-relevant concentration was also accomplished (see, FIG. 16B)."}, "troponin": {"target": "troponin (Homo sapiens, UniProt P19429)", "sequence (P19429 whole entry)": "as above", "assay": "detection of troponin in artificial eccrine sweat with peptide-based BPDs (LSPR shift)", "type": "binding", "method": "as §1"}, "cardiac troponin I": {"target": "T2, cardiac troponin I (human, UniProt P19429 2-210, limits assumed)", "T2 construct": "It was used in 0.1 M TBS pH 8.0, and spiked in human plasma and artificial eccrine sweat; also called cTnI; troponin 1", "T2 sequence (P19429 2-210 limits assumed)": "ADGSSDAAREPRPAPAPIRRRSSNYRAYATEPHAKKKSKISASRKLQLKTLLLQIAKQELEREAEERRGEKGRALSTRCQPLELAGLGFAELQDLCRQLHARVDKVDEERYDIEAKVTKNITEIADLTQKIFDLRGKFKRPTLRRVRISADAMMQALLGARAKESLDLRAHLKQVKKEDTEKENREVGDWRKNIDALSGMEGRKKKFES", "assay": "LSPR shift after troponin binding, peptide-AuNR against anti-cTnI-AuNR as reference"}},
  "note": "Where no end group is shown, it is not given here.",
  "data": [
    {"molecule": "Human troponin I binding peptide: Human troponin I binding peptide (Seq. ID No. 1), identified from a phage display peptide library (FYSHSFHENWPS)", "values": [
      {"measurement": "binding affinity to cTnI", "setting": "cTnI [1]", "value": "nanomolar"}
    ]},
    {"molecule": "peptide-AuNR: Troponin I binding peptide with C-terminal cysteine (Seq. ID No. 2) conjugated to gold nanorods via Au—S linkage, adsorbed on filter paper (FYSHSFHENWPSC; not fully specified (residue 13); also: conjugated to gold nanorods via Au–S bond of C-terminal Cys)", "values": [
      {"measurement": "LSPR red shift on exposure to troponin", "setting": "cTnI [2]; troponin 1 3.53 μg/mL in 0.1 M TBS, pH 8.0", "value": 12.3, "unit": "nm"},
      {"measurement": "limit of detection of cTnI", "setting": "cTnI [2]; varying concentrations of cTnI", "value": "about 35.3 pg/mL"},
      {"measurement": "LSPR shift upon exposure to HSA", "setting": "[3]", "value": "small LSPR shifts"},
      {"measurement": "stability (measured LSPR shift after incubation)", "setting": "[4]", "value": "remarkable thermal and temporal stability"},
      {"measurement": "LSPR shift with increased troponin concentration", "setting": "cTnI [5]", "value": "monotonic increase"},
      {"measurement": "limit of detection of cTnI in human plasma", "setting": "cTnI [5]; BPDs first blocked with 1% HAS", "value": 353, "unit": "pg/mL"},
      {"measurement": "LSPR shift with increased troponin concentration", "setting": "troponin", "value": "monotonic increase"},
      {"measurement": "detection of troponin at physiologically-relevant concentration", "setting": "troponin", "value": "accomplished"}
    ]},
    {"molecule": "FYSHSFHENWPSC(AuNR) (ID No. 1 is the parent phage-display peptide; ID No. 2 is the same peptide with an added C-terminal Cys, and it is the form on the AuNRs in the assays; also called peptide-AuNR)", "values": [
      {"measurement": "LSPR shift relative to antibodies as recognition elements", "setting": "cardiac troponin I", "value": "~100", "unit": "% higher"}
    ]}
  ]
}
